The labels stand for the following.
B1: VH:VL chains; a variant is named by its letters at X, in order (parent)
chain 1: QVQLVQSGAEVKKPGASVKVSCKASGYTFTDYXMHWVRQAPGQGLEWMGXVNPNXXXTTYNQKFEGRVTMTTDTSTSTAYMELRSLRSDDTAVYYCARXNXLDXWGQGTTVTVSS
chain 2: DIQMTQSPSSLSASVGDRVTITCSVSSSVSSIYLHWYQQKPGKAPKLLIYSTSNLASGVPSRFSGSGSGTDFTLTISSLQPEDFATYYCQVYSGYPLTFGGGTKVEIK

The values below come from the emibetuzumab library of Makowski et al. (2022).

This series covers variants of B1. The series can be described thus: yeast display scFab, FACS + sequencing. The method in brief: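 For the non-specific binding call, a heavy-chain CDR mutant scFab library on the yeast surface was FACS-sorted and samples from two replicates were deep sequenced. Cells were labelled with anti-Myc and either biotinylated ovalbumin (260 μg/mL in PBSB, 3 h, room temperature) or soluble membrane proteins (130 μg/mL, 20 min on ice), with gates on the top 25% and bottom 10% of binders. With membrane protein and ovalbumin samples pooled, a sequence in ≥3 of 4 positive samples and no negatives was scored positive, and the converse rule scored negatives.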
Turning to FAKTDAGF chain 1 G108D, the non-specific binding call was “binds”.
The value for SARADSGV was “no binding”; that for DAKTDDGV was “no binding”.
As for VAGTGDGV, the entry is “no binding”; as for VAGTGDGA, “no binding”.
As to VAGTGDGY, the non-specific binding call is listed as “no binding”.
The value for YAKRGSWA was “binds”; that for VAGTGAVV was “no binding”; that for AARADDVA was “no binding”.
As for AARADDVY, the entry is “no binding”.
The value for AARADDVD was “no binding”; that for VAGTGDLY was “no binding”.
For VAGTGDLA, the non-specific binding call is “no binding”.
For VARAADAD, the non-specific binding call is “no binding”.
On to VARETDVA, for which the non-specific binding call is reported as “no binding”.
As for FAGRGSAD, the entry is “binds”; as for YAGRGDWF, “no binding”; as for FAGRDAVV, “binds”.
The value for FAGGGDLV was “no binding”; that for DAGTGSGA was “no binding”.
As for AARADSGY, the entry is “no binding”; as for AARADSGD, “no binding”.
Consider DAKENDVA, for which the non-specific binding call is “no binding”.
The value for DAKENDVF was “no binding”; that for DAGKGAGD was “no binding”; that for FAGRGALD was “binds”.
As for SAGRSDLV chain 1 R67H, the entry is “no binding”; as for SAREGDAV, “no binding”.
The value for VAGTGASD was “no binding”; that for VAGRGVGD was “binds”; that for SAGRGVGS was “binds”.
Consider YAGRGSAS, for which the non-specific binding call is on record as “no binding”.
The value for AARADFGV was “no binding”; that for FAGGGDVY was “no binding”; that for DAKEGDVV was “no binding”.
The value for FAKEGFWD was “binds”; that for VAREDDWA was “no binding”; that for YARETDGA was “no binding”.
As to VAKENAVA, the non-specific binding call was “no binding”.
On to YAGRAAWD, for which the non-specific binding call was “binds”.
The value for YAGGGDWA was “no binding”; that for SAGRGFGF was “binds”; that for VAGTDDWV was “no binding”.
As for FAGGGFAV, the entry is “binds”; as for AAGRSDLV chain 1 R67H, “no binding”.
As for DAKEGDGV, the entry is “no binding”; as for YARADDAS, “no binding”; as for DAGKSDWY, “no binding”.
In the case of AARADDAV, the non-specific binding call was “no binding”.
The value for AARADDAA was “no binding”; that for YARADSLD was “no binding”.
The value for DAGKGALF was “no binding”; that for DAGGGDWD was “no binding”; that for DAGGGDWV was “no binding”.
The value for FAGGSFAS was “binds”; that for YAGTGDLV was “no binding”.
In the case of YAGTGVVD, the non-specific binding call is given as “binds”.
The value for YAKADYSS was “binds”; that for YAKEGDGV was “no binding”; that for DAGTDAGD was “no binding”.
For VAGTGDAA, the non-specific binding call is on record as “no binding”.
The value for VAREDDLS was “no binding”; that for DARETFLD was “no binding”; that for VAGTGFWV was “binds”.
The value for DAGRSDLV chain 1 R67H was “no binding”; that for DAKKNASF was “no binding”.
The value for YAGRGVVD was “binds”; that for DAKRDSAS was “no binding”.
With VARADSGV, the non-specific binding call was “no binding”.
VAGTGSSD: the non-specific binding call is listed as “no binding”.
The value for VAGTGSSV was “no binding”; that for VAGTGSSA was “no binding”.
The value for YAKRDALA was “no binding”; that for VAGTGDVF was “no binding”.
For the variant VAGTGDVY, the non-specific binding call was “no binding”.
As for VAGTGDVA, the entry is “no binding”; as for SAGKDDLA, “no binding”; as for SAREGSSA, “no binding”.
The value for DAGRGAVS was “no binding”; that for AAGRAYGA was “binds”; that for DAGGGSSD was “no binding”.
As for DAGGGSSS, the entry is “no binding”.
As for FAGGGDWV, the non-specific binding call is on record as “no binding”.
The value for DAKEGSLD was “no binding”; that for DARADSGV was “no binding”.
The value for DAKENAGD was “no binding”; that for VAKEGAWV was “binds”; that for AARADSLS was “no binding”.
The value for YAKRDAGD was “no binding”; that for YAGTGFWV was “binds”; that for DAGGGDGA was “no binding”.
Regarding YAGTGFVD, the non-specific binding call is reported as “binds”.
Consider FAKEGDGD, for which the non-specific binding call is listed as “no binding”.
As for DAKEGAGD, the entry is “no binding”.
For YAGKTAWS, the non-specific binding call is given as “binds”.
As for FAGRGYSD, the entry is “binds”.
The value for VAGTGSLD was “no binding”.
As for YAGRGDAD, the entry is “no binding”; as for YAGRGDAS, “no binding”; as for DAGRGDGF, “no binding”.
On to DAGRGDGY, for which the non-specific binding call is “no binding”.
As for DAGGGDVV, the non-specific binding call is reported as “no binding”.
As for DAGGGDVA, the entry is “no binding”; as for YAGRGFGA, “binds”; as for YAGRGFGF, “binds”.
Consider YARADDGD, for which the non-specific binding call was “no binding”.
As to YARADDGS, the non-specific binding call is “no binding”.
The value for YAREGSGA was “binds”; that for YAGGTSSD was “no binding”; that for SAGTGSWD was “no binding”.
The value for YAGKGAWV was “binds”; that for YAGKNAVV was “no binding”.
